Results as given in publication PMC5737868.

Legend:
[1] = molecular target: FUS-P525L-NLUC-HA / NLUC-FUS-P525L-HA (full-length) (UniProt P35637 1-526, P525L); assay: NanoBRET
FUS-NLUC-FLAG = FUS-NLUC-FLAG (UniProt P35637 1-526, P525L); assay: NanoBRET

Binder	Kd [1] [nM]	Kd (FUS-NLUC-FLAG) [nM]
CTGCTAGCCTCTGGATTTGA (XNA, full phosphorothioate, 2'-fluoro-modified gapmer (pattern not in the material)) [2'-F PS-ASO ION-766637]	2.2 ± 0.2	
CUGCUAGCCUCUGGAUUUGA (ssRNA) [PO-RNA JB-39]		143 ± 38.2
